From publication PMC3534135, “Interaction of the Transactivation Domain of B-Myb with the TAZ2 Domain of the Coactivator p300: Molecular Features and Properties of the Complex” (PLoS ONE, 2012)

Target: T1, B-Myb transactivation domain (residues 275-376) (mouse, UniProt P48972 275-376)
T1 construct: also called B-Myb TAD
T1 sequence (looked up): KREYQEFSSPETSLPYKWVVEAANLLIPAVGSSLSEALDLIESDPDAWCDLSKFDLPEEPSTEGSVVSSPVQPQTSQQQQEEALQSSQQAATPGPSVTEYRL
Experiment: NMR titration; 15N/1H HSQC of 15N-labelled p300 TAZ2 (100 µM) without and with 100 or 200 µM unlabelled B-Myb TAD; minimal shift approach; 25°C, 600 MHz; 20 mM Bis-Tris, 100 mM NaCl, 5 mM DTT, 20 µM ZnSO4, pH 5.8; Kd estimated from intermediate exchange
Conditions: both partners purified

Kd: 1 to 10 µM
B1: TAZ2 domain of the coactivator p300 (domain or fragment, human, UniProt Q09472 1726-1812, looked up)
chain: SPGDSRRLSIQRCIQSLVHACQCRNANCSLPSCQKMKRVVQHTKGCKRKTNGGCPICKQLIALCCYHAKHCQENKCPVPFCLNIKQK
notes: human p300, TAZ2 domain, residues 1726-1812, corresponding to murine CBP TAZ2; cloned into the NdeI and BamHI sites of pET23a; No tag is stated; also called p300 TAZ2
